Test results published in US20160279261A1 (Genentech, published 2016).

Target: CD33 (UniProt P20138 18-364, limits assumed)
Test: cell-based or functional assay

CD33, sequence (P20138 18-364 limits assumed): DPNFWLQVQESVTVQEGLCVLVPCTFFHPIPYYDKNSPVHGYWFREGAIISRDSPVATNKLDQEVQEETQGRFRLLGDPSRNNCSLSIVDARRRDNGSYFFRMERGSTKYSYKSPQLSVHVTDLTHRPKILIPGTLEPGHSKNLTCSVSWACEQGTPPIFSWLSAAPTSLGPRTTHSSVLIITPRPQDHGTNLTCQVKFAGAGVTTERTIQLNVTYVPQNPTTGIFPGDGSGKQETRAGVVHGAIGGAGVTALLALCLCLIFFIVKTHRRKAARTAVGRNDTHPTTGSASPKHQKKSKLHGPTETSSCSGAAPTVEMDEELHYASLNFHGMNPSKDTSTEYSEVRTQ

Binder | EOL-1 IC50 (in vitro cell proliferation assay) [ng/mL]
CD33 CBI-PBD ADC2-2 (antibody, V domains shown) VH: QVQLVQSGAEVKKPGSSVKVSCKASGGIFSNHAISWVRQAPGQGLEWMGGIIPIFGTANYAQKFQGRVTITADESTSTAFMELSSLRSEDTAVYYCAREWADVFDIWGQGTMVTVSS VL: EIVLTQSPLSLPVTPGEPASISCRSSQSLLHSNGYNYLDWYLQKPGQSPQLLIYLGVNSVSGVPDRFSGSGSGTDFTLKISRVEAEDVGVYYCMQALQTPWTFGQGTKVEIK | 370
CD33 CBI-PBD ADC3-2 (antibody, V domains shown) VH: QVQLVQSGAEVKKPGSSVKVSCKASGGIFSNHAISWVRQAPGQGLEWMGGIIPIFGTANYAQKFQGRVTITADESTSTAFMELSSLRSEDTAVYYCAREWADVFDIWGQGTMVTVSS VL: EIVLTQSPLSLPVTPGEPASISCRSSQSLLHSNGYNYLDWYLQKPGQSPQLLIYLGVNSVSGVPDRFSGSGSGTDFTLKISRVEAEDVGVYYCMQALQTPWTFGQGTKVEIK | 18.1
